Biological target: CD3E on the surface of Jurkat-NFAT-Luc cells (UniProt P07766)
Experiment: cell-based or functional assay

CD3E on the surface of Jurkat-NFAT-Luc cells, sequence (P07766 23-207): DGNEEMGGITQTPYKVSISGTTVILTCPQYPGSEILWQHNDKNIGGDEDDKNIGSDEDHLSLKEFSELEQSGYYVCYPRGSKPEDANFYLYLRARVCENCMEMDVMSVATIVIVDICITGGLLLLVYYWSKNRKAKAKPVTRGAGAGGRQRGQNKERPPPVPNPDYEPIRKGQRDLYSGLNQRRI

EC50 of Jurkat-NFAT-Luc luciferase activation; tumor cells 8226: 5.39 pM
EC50 of Jurkat-NFAT-Luc luciferase activation; tumor cells ARD: 2.04 pM
EC50 of Jurkat-NFAT-Luc luciferase activation; tumor cells H929: 2.72 pM
EC50 of Jurkat-NFAT-Luc luciferase activation; tumor cells L363: 2.79 pM
EC50 of Jurkat-NFAT-Luc luciferase activation; tumor cells MM.1S: 1.98 pM
EC50 of Jurkat-NFAT-Luc luciferase activation; tumor cells U266: 4.09 pM
B1: hz11B7.5/SP34.24 (bispecific antibody, V domains shown)
VH 1: QVQLVQSGAEVKKPGSSVKVSCKASGYTFTTYTMHWVRQAPGQGLEWIGFIIPSSGYTSYNQNFKDKVTLTADKSTSTAYMELSSLRSEDTAVYFCTGGQARAYYPLDYWGQGTLVTVSS
VL 1: EIVMTQSPATLSVSPGERATLSCRASQSIGTTIHWYQQKPGQAPRLLIKYASESISGIPSRFSGSGSGTEFTLTISSLQSEDFAVYYCQQSYNWPRTFGGGTKVEIK
VH 2: EVQLVESGGGLVQPGGSLKLSCAASGFTFNTYAMNWVRQASGKGLEWVGRIRSKYNNYATYYADSVKDRFTISRDDSKSTLYLQMNSLKTEDTAVYYCARHGNFGQSYVSWFAYWGQGTTVTVSS
VL 2: QAVVTQEPSLTVSPGGTVTLTCRSSTGAVTTSNYANWVQQKPGQAPRGLIGGTNKRAPGVPARFSGSLLGDKAALTLLGAQPEDEAEYYCALWYSNLWVFGQGTKLTVL

— patent US20250074996A1
